{"source": "the supplement of paper PMC5998384", "key": {"HeLa Kyoto [1]": {"test_system": "HeLa Kyoto", "experiment": "solubility change mitosis vs G1/S (difference of NP-40 vs SDS log2 ratios) (log2 ratio difference); higher = more soluble in mitosis"}, "HeLa Kyoto [2]": {"test_system": "HeLa Kyoto", "experiment": "solubility in G1/S (NP-40 vs SDS abundance) (log2 ratio); higher = more soluble", "conditions": "cell cycle stage: G1/S"}}}
{"substance": "MMSEHDLADVVQIAVEDLSPDHPVVLENHVVTDEDEPALKRQRLEINCQDPSIKTICLRLDSIEAKLQALEATCKSLEEKLDLVTNKQHSPIQVPMVAGSPLGATQTCNKVRCVVPQTTVILNNDRQNAIVAKMEDPLSNRAPDSLENVISNAVPGRRQNTIVVKVPGQEDSHHEDGESGSEASDSVSSCGQAGSQSIGSNVTLITLNSEEDYPNGTWLGDENNPEMRVRCAIIPSDMLHISTNCRTAEKMALTLLDYLFHREVQAVSNLSGQGKHGKKQLDPLTIYGIRCHLFYKFGITESDWYRIKQSIDSKCRTAWRRKQRGQSLAVKSFSRRTPNSSSYCPSEPMMSTPPPASELPQPQPQPQALHYALANAQQVQIHQIGEDGQVQVGHLHIAQVPQGEQVQITQDSEGNLQIHHVGQDGQLLEATRIPCLLAPSVFKASSGQVLQGAQLIAVASSDPAAAGVDGSPLQGSDIQVQYVQLAPVSDHTAGAQTAEALQPTLQPEMQLEHGAIQIQ [BANP]", "values": [{"measurement": "solubility change mitosis (log2)", "setting": "HeLa Kyoto [1]", "value": 0.0132}, {"measurement": "solubility in G1/S (log2)", "setting": "HeLa Kyoto [2]", "value": 0.417}]}
{"substance": "MPKIVLNGVTVDFPFQPYKCQQEYMTKVLECLQQKVNGILESPTGTGKTLCLLCTTLAWREHLRDGISARKIAERAQGELFPDRALSSWGNAAAAAGDPIACYTDIPKIIYASRTHSQLTQVINELRNTSYRPKVCVLGSREQLCIHPEVKKQESNHLQIHLCRKKVASRSCHFYNNVEEKSLEQELASPILDIEDLVKSGSKHRVCPYYLSRNLKQQADIIFMPYNYLLDAKSRRAHNIDLKGTVVIFDEAHNVEKMCEESASFDLTPHDLASGLDVIDQVLEEQTKAAQQGEPHPEFSADSPSPGLNMELEDIAKLKMILLRLEGAIDAVELPGDDSGVTKPGSYIFELFAEAQITFQTKGCILDSLDQIIQHLAGRAGVFTNTAGLQKLADIIQIVFSVDPSEGSPGSPAGLGALQSYKVHIHPDAGHRRTAQRSDAWSTTAARKRGKVLSYWCFSPGHSMHELVRQGVRSLILTSGTLAPVSSFALEMQIPFPVCLENPHIIDKHQIWVGVVPRGPDGAQLSSAFDRRFSEECLSSLGKALGNIARVVPYGLLIFFPSYPVMEKSLEFWRARDLARKMEALKPLFVEPRSKGSFSETISAYYARVAAPGSTGATFLAVCRGKASEGLDFSDTNGRGVIVTGLPYPPRMDPRVVLKMQFLDEMKGQGGAGGQFLSGQEWYRQQASRAVNQAIGRVIRHRQDYGAVFLCDHRFAFADARAQLPSWVRPHVRVYDNFGHVIRDVAQFFRVAERTMPAPAPRATAPSVRGEDAVSEAKSPGPFFSTRKAKSLDLHVPSLKQRSSGSPAAGDPESSLCVEYEQEPVPARQRPRGLLAALEHSEQRAGSPGEEQAHSCSTLSLLSEKRPAEEPRGGRKKIRLVSHPEEPVAGAQTDRAKLFMVAVKQELSQANFATFTQALQDYKGSDDFAALAACLGPLFAEDPKKHNLLQGFYQFVRPHHKQQFEEVCIQLTGRGCGYRPEHSIPRRQRAQPVLDPTGRTAPDPKLTVSTAAAQQLDPQEHLNQGRPHLSPRPPPTGDPGSQPQWGSGVPRAGKQGQHAVSAYLADARRALGSAGCSQLLAALTAYKQDDDLDKVLAVLAALTTAKPEDFPLLHRFSMFVRPHHKQRFSQTCTDLTGRPYPGMEPPGPQEERLAVPPVLTHRAPQPGPSRSEKTGKTQSKISSFLRQRPAGTVGAGGEDAGPSQSSGPPHGPAASEWGL [RTEL1]", "values": [{"measurement": "solubility change mitosis (log2)", "setting": "HeLa Kyoto [1]", "value": -0.104}, {"measurement": "solubility in G1/S (log2)", "setting": "HeLa Kyoto [2]", "value": -0.0713}]}
{"substance": "PCIF1", "values": [{"measurement": "solubility change mitosis (log2)", "setting": "HeLa Kyoto [1]", "value": -0.0368}, {"measurement": "solubility in G1/S (log2)", "setting": "HeLa Kyoto [2]", "value": 0.0856}]}
{"substance": "MASQLQVFSPPSVSSSAFCSAKKLKIEPSGWDVSGQSSNDKYYTHSKTLPATQGQANSSHQVANFNIPAYDQGLLLPAPAVEHIVVTAADSSGSAATSTFQSSQTLTHRSNVSLLEPYQKCGLKRKSEEVDSNGSVQIIEEHPPLMLQNRTVVGAAATTTTVTTKSSSSSGEGDYQLVQHEILCSMTNSYEVLEFLGRGTFGQVAKCWKRSTKEIVAIKILKNHPSYARQGQIEVSILSRLSSENADEYNFVRSYECFQHKNHTCLVFEMLEQNLYDFLKQNKFSPLPLKYIRPILQQVATALMKLKSLGLIHADLKPENIMLVDPVRQPYRVKVIDFGSASHVSKAVCSTYLQSRYYRAPEIILGLPFCEAIDMWSLGCVIAELFLGWPLYPGASEYDQIRYISQTQGLPAEYLLSAGTKTTRFFNRDPNLGYPLWRLKTPEEHELETGIKSKEARKYIFNCLDDMAQVNMSTDLEGTDMLAEKADRREYIDLLKKMLTIDADKRITPLKTLNHQFVTMTHLLDFPHSNHVKSCFQNMEICKRRVHMYDTVSQIKSPFTTHVAPNTSTNLTMSFSNQLNTVHNQASVLASSSTAAAATLSLANSDVSLLNYQSALYPSSAAPVPGVAQQGVSLQPGTTQICTQTDPFQQTFIVCPPAFQTGLQATTKHSGFPVRMDNAVPIVPQAPAAQPLQIQSGVLTQGSCTPLMVATLHPQVATITPQYAVPFTLSCAAGRPALVEQTAAVLQAWPGGTQQILLPSTWQQLPGVALHNSVQPTAMIPEAMGSGQQLADWRNAHSHGNQYSTIMQQPSLLTNHVTLATAQPLNVGVAHVVRQQQSSSLPSKKNKQSAPVSSKSSLDVLPSQVYSLVGSSPLRTTSSYNSLVPVQDQHQPIIIPDTPSPPVSVITIRSDTDEEEDNKYKPSSSGLKPRSNVISYVTVNDSPDSDSSLSSPYSTDTLSALRGNSGSVLEGPGRVVADGTGTRTIIVPPLKTQLGDCTVATQASGLLSNKTKPVASVSGQSSGCCITPTGYRAQRGGTSAAQPLNLSQNQQSSAAPTSQERSSNPAPRRQQAFVAPLSQAPYTFQHGSPLHSTGHPHLAPAPAHLPSQAHLYTYAAPTSAAALGSTSSIAHLFSPQGSSRHAAAYTTHPSTLVHQVPVSVGPSLLTSASVAPAQYQHQFATQSYIGSSRGSTIYTGYPLSPTKISQYSYL [HIPK1]", "values": [{"measurement": "solubility change mitosis (log2)", "setting": "HeLa Kyoto [1]", "value": -0.386}, {"measurement": "solubility in G1/S (log2)", "setting": "HeLa Kyoto [2]", "value": 0.478}]}
{"substance": "SYNE1", "values": [{"measurement": "solubility change mitosis (log2)", "setting": "HeLa Kyoto [1]", "value": 0.198}, {"measurement": "solubility in G1/S (log2)", "setting": "HeLa Kyoto [2]", "value": -0.526}]}
{"substance": "MEAKTLGTVTPRKPVLSVSARKIKDNAADWHNLILKWETLNDAGFTTANNIANLKISLLNKDKIELDSSSPASKENEEKVCLEYNEELEKLCEELQATLDGLTKIQVKMEKLSSTTKGICELENYHYGEESKRPPLFHTWPTTHFYEVSHKLLEMYRKELLLKRTVAKELAHTGDPDLTLSYLSMWLHQPYVESDSRLHLESMLLETGHRAL [CINP]", "values": [{"measurement": "solubility change mitosis (log2)", "setting": "HeLa Kyoto [1]", "value": 0.525}, {"measurement": "solubility in G1/S (log2)", "setting": "HeLa Kyoto [2]", "value": 0.148}]}
{"substance": "WWC1", "values": [{"measurement": "solubility change mitosis (log2)", "setting": "HeLa Kyoto [1]", "value": -0.4}, {"measurement": "solubility in G1/S (log2)", "setting": "HeLa Kyoto [2]", "value": -0.00567}]}
{"substance": "MAQEKMELDLEPDTSYGGTLRRSSSAPLIHGLSDLSQVFQPYTLRTRRNSTTIMSRHSLEEGLDMVNRETAHEREMQTAMQISQSWDESLSLSDSDFDKPEKLYSPKRIDFTPVSPAPSPTRGFGKMFVSSSGLPPSPVPSPRRFSRRSQSPVKCIRPSVLGPLKRKGEMETESQPKRLFQGTTNMLSPDAAQLSDLSSCSDILDGSSSSSGLSSDPLAKGSATAESPVACSNSCSSFILMDDLSPK [FAM122B]", "values": [{"measurement": "solubility change mitosis (log2)", "setting": "HeLa Kyoto [1]", "value": -0.79}, {"measurement": "solubility in G1/S (log2)", "setting": "HeLa Kyoto [2]", "value": 1.18}]}
{"substance": "MTSFEDADTEETVTCLQMTVYHPGQLQCGIFQSISFNREKLPSSEVVKFGRNSNICHYTFQDKQVSRVQFSLQLFKKFNSSVLSFEIKNMSKKTNLIVDSRELGYLNKMDLPYRCMVRFGEYQFLMEKEDGESLEFFETQFILSPRSLLQENNWPPHRPIPEYGTYSLCSSQSSSPTEMDENES [TIFA]", "values": [{"measurement": "solubility change mitosis (log2)", "setting": "HeLa Kyoto [1]", "value": -0.224}, {"measurement": "solubility in G1/S (log2)", "setting": "HeLa Kyoto [2]", "value": 0.0872}]}
{"substance": "MEPIYPFARPQMNTRFPSSRMVPFHFPPSKCALWNPTPTGDFIYLHLSYYRNPKLVVTEKTIRLAYRHAKQNKKNSSCFLLGSLTADEDEEGVTLTVDRFDPGREVPECLEITPTASLPGDFLIPCKVHTQELCSREMIVHSVDDFSSALKALQCHICSKDSLDCGKLLSLRVHITSRESLDSVEFDLHWAAVTLANNFKCTPVKPIPIIPTALARNLSSNLNISQVQGTYKYGYLTMDETRKLLLLLESDPKVYSLPLVGIWLSGITHIYSPQVWACCLRYIFNSSVQERVFSESGNFIIVLYSMTHKEPEFYECFPCDGKIPDFRFQLLTSKETLHLFKNVEPPDKNPIRCELSAESQNAETEFFSKASKNFSIKRSSQKLSSGKMPIHDHDSGVEDEDFSPRPIPSPHPVSQKISKIQPSVPELSLVLDGNFIESNPLPTPLEMVNNENPPLINHLEHLKPLQPQLYDEKHSPEVEAGEPSLRGIPNQLNQDKPALLRHCKVRQPPAYKKGNPHTRNSIKPSSHNGPSHDIFEKLQTVSAGNVQNEEYPIRPSTLNSRQSSLAPQSQPHDFVFSPHNSGRPMELQIPTPPLPSYCSTNVCRCCQHHSHIQYSPLNSWQGANTVGSIQDVQSEALQKHSLFHPSGCPALYCNAFCSSSSPIALRPQGDMGSCSPHSNIEPSPVARPPSHMDLCNPQPCTVCMHTPKTESDNGMMGLSPDAYRFLTEQDRQLRLLQAQIQRLLEAQSLMPCSPKTTAVEDTVQAGRQMELVSVEAQSSPGLHMRKGVSIAVSTGASLFWNAAGEDQEPDSQMKQDDTKISSEDMNFSVDINNEVTSLPGSASSLKAVDIPSFEESNIAVEEEFNQPLSVSNSSLVVRKEPDVPVFFPSGQLAESVSMCLQTGPTGGASNNSETSEEPKIEHVMQPLLHQPSDNQKIYQDLLGQVNHLLNSSSKETEQPSTKAVIISHECTRTQNVYHTKKKTHHSRLVDKDCVLNATLKQLRSLGVKIDSPTKVKKNAHNVDHASVLACISPEAVISGLNCMSFANVGMSGLSPNGVDLSMEANAIALKYLNENQLSQLSVTRSNQNNCDPFSLLHINTDRSTVGLSLISPNNMSFATKKYMKRYGLLQSSDNSEDEEEPPDNADSKSEYLLNQNLRSIPEQLGGQKEPSKNDHEIINCSNCESVGTNADTPVLRNITNEVLQTKAKQQLTEKPAFLVKNLKPSPAVNLRTGKAEFTQHPEKENEGDITIFPESLQPSETLKQMNSMNSVGTFLDVKRLRQLPKLF [STIL]", "values": [{"measurement": "solubility change mitosis (log2)", "setting": "HeLa Kyoto [1]", "value": 0.239}, {"measurement": "solubility in G1/S (log2)", "setting": "HeLa Kyoto [2]", "value": -0.362}]}
{"substance": "MAEASFGSSSPVGSLSSEDHDFDPTAEMLVHDYDDERTLEEEEMMDEGKNFSSEIEDLEKEGTMPLEDLLAFYGYEPTIPAVANSSANSSPSELADELPDMTLDKEEIAKDLLSGDDEETQSSADDLTPSVTSHETSDFFPRPLRSNTACDGDKESEVEDVETDSGNSPEDLRKEIMIGLQYQAEIPPYLGEYDGNEKVYENEDQLLWCPDVVLESKVKEYLVETSLRTGSEKIMDRISAGTHTRDNEQALYELLKCNHNIKEAIERYCCNGKASQEGMTAWTEEECRSFEHALMLFGKDFHLIQKNKVRTRTVAECVAFYYMWKKSERYDYFAQQTRFGKKRYNHHPGVTDYMDRLVDETEALGGTVNASALTSNRPEPIPDQQLNILNSFTASDLTALTNSVATVCDPTDVNCLDDSFPPLGNTPRGQVNHVPVVTEELLTLPSNGESDCFNLFETGFYHSELNPMNMCSEESERPAKRLKMGIAVPESFMNEVSVNNLGVDFENHTHHITSAKMAVSVADFGSLSANETNGFISAHALHQHAALHSE [MIER3]", "values": [{"measurement": "solubility change mitosis (log2)", "setting": "HeLa Kyoto [1]", "value": -0.33}, {"measurement": "solubility in G1/S (log2)", "setting": "HeLa Kyoto [2]", "value": 0.163}]}
